Laboratory results: article PMC10307626, “Structural basis of NINJ1-mediated plasma membrane rupture in cell death” (Nature, 2023)
Where a chain is given by its changes, count along the chain named.

B1: hNINJ1∆1–36 (domain or fragment, human, UniProt Q92982 37-152, looked up)
chain: NVNHYASKKSAAESMLDIALLMANASQLKAVVEQGPSFAFYVPLVVLISISLVLQIGVGVLLIFLVKYDLNNPAKHAKLDFLNNLATGLVFIIVVVNIFITAFGVQKPLMDMAPQQ
notes: ninjurin-1 (NINJ1), human, UniProt Q92982, printed as hNINJ1∆1–36 (residues 1–36 removed); probably as the wild type (8×His and TEV site, cleaved); also called truncated hNINJ1; source: E. coli Rosetta2 (DE3), purified
B2: hNINJ1 Q91A (natural protein, human, UniProt Q92982 1-152, looked up)
chain: MDSGTEEYELNGGLPPGTPGSPDASPARWGWRHGPINVNHYASKKSAAESMLDIALLMANASQLKAVVEQGPSFAFYVPLVVLISISLVLAIGVGVLLIFLVKYDLNNPAKHAKLDFLNNLATGLVFIIVVVNIFITAFGVQKPLMDMAPQQ
notes: ninjurin-1 (NINJ1), human, UniProt Q92982, residues 1–152, point mutant; source: E. coli Rosetta2 (DE3), purified (DDM, Ni-NTA, TEV cleavage); not shown: 8×His, N-terminal, cleaved
B3: hNINJ1 D53A (natural protein, human, UniProt Q92982 1-152, looked up)
chain: B2 chain with D53A, A91Q
notes: as for B2
B4: hNINJ1 A138L (natural protein, human, UniProt Q92982 1-152, looked up)
chain: B2 chain with A91Q, A138L
notes: as for B2
B5: hNINJ1 A47L (natural protein, human, UniProt Q92982 1-152, looked up)
chain: B2 chain with A47L, A91Q
notes: as for B2
B6: hNINJ1 T123L (natural protein, human, UniProt Q92982 1-152, looked up)
chain: B2 chain with A91Q, T123L
notes: as for B2
B7: hNINJ1 I84F (natural protein, human, UniProt Q92982 1-152, looked up)
chain: B2 chain with I84F, A91Q
notes: as for B2
B8: hNINJ1 K45Q (natural protein, human, UniProt Q92982 1-152, looked up)
chain: B2 chain with K45Q, A91Q
notes: as for B2
B9: hNINJ1 V82F (natural protein, human, UniProt Q92982 1-152, looked up)
chain: B2 chain with V82F, A91Q
notes: as for B2
B10: hNINJ1 G95L (natural protein, human, UniProt Q92982 1-152, looked up)
chain: B2 chain with A91Q, G95L
notes: as for B2
B11: full-length, wild-type human NINJ1 (ninjurin-1), residues 1–152 (natural protein, UniProt Q92982 1-152, looked up)
chain: B2 chain with A91Q
notes: ninjurin-1 (NINJ1), human, UniProt Q92982, residues 1–152; residues 39–141 are modelled in the filament structure; residues of the site probably remain at the N-terminus after cleavage; Forms filaments of no fixed number of subunits; also called hNINJ1; hNINJ1(1–152); source: E. coli Rosetta2 (DE3), extracted from membranes with DDM, purified (Ni-NTA, TEV cleavage, SEC on Superose 6); not shown: …
B12: hNINJ1 L121F (natural protein, human, UniProt Q92982 1-152, looked up)
chain: B2 chain with A91Q, L121F
notes: as for B2
B13: hNINJ1 V82W (natural protein, human, UniProt Q92982 1-152, looked up)
chain: B2 chain with V82W, A91Q
notes: as for B2
B14: hNINJ1 L121W (natural protein, human, UniProt Q92982 1-152, looked up)
chain: B2 chain with A91Q, L121W
notes: as for B2
B15: hNINJ1 I134F (natural protein, human, UniProt Q92982 1-152, looked up)
chain: B2 chain with A91Q, I134F
notes: as for B2

Target: the molecule itself
Test: negative-stain TEM; 0.02 mg/ml purified protein on glow-discharged carbon-coated copper grids, 2% uranyl acetate; single-point mutants taken directly after TEV cleavage of the 8×His tag

Binding result, binds:
B1
B2
B3
B4
B5
B6
B7
B8
B9
B10
B11
B12
B13
B14
B15
